Data from paper PMC6013482, “Conformational switching of the pseudokinase domain promotes human MLKL tetramerization and cell death by necroptosis” (Nature Communications, 2018).

B1: wild-type human MLKL (residues 2–471), recombinant (natural protein, UniProt Q8NB16 2-471, looked up)
chain: ENLKHIITLGQVIHKRCEEMKYCKKQCRRLGHRVLGLIKPLEMLQDQGKRSVPSEKLTTAMNRFKAALEEANGEIEKFSNRSNICRFLTASQDKILFKDVNRKLSDVWKELSLLLQVEQRMPVSPISQGASWAQEDQQDADEDRRAFQMLRRDNEKIEASLRRLEINMKEIKETLRQYLPPKCMQEIPQEQIKEIKKEQLSGSPWILLRENEVSTLYKGEYHRAPVAIKVFKKLQAGSIAIVRQTFNKEIKTMKKFESPNILRIFGICIDETVTPPQFSIVMEYCELGTLRELLDREKDLTLGKRMVLVLGAARGLYRLHHSEAPELHGKIRSSNFLVTQGYQVKLAGFELRKTQTSMSLGTTREKTDRVKSTAYLSPQELEDVFYQYDVKSEIYSFGIVLWEIATGDIPFQGCNSEKIRKLVAVKRQQEPLGEDCPSELREIIDECRAHDPSVRPSVDEILKKLSTFSK
notes: human MLKL, residues 2–471; Elutes as oligomer (tetramer) and monomer peaks; the peaks were pooled except where indicated; Native MS used the oligomer SEC fraction; also called hMLKL; wild-type hMLKL; source: Sf21 insect cells (baculovirus), purified (glutathione agarose, TEV cleavage, Superdex S200); not shown: GST, N-terminal, cleaved

Legend:
[1] = target: the molecule itself; test: native MS; 250 mM ammonium acetate, nano electrospray; wild type: the oligomer SEC fraction; self-association
[2] = target: the molecule itself; test: AUC; sedimentation velocity, 0.25, 0.5 or 1 mg/mL hMLKL, 20 mM HEPES pH 7.5, 200 mM NaCl, 50,000 rpm, 20 °C; at 1 mg/mL also with 300 μM ATP; self-association (tetramer and monomer)
[3] = target: B1; test: SPR; SBP-hRIPK3 (2–356) immobilised on a streptavidin chip (Biacore SA); hMLKL flowed over at 1, 0.5, 0.25, 0.125, 0.0625 and 0 μM, 30 μL/min; 20 mM HEPES pH 8.0, 200 mM NaCl; 25 °C; details: both partners purified

## B1
[1]
  stoichiometry N: 4

B2: K331N human MLKL (residues 2–471), recombinant (natural protein, UniProt Q8NB16 2-471, looked up)
chain: ENLKHIITLGQVIHKRCEEMKYCKKQCRRLGHRVLGLIKPLEMLQDQGKRSVPSEKLTTAMNRFKAALEEANGEIEKFSNRSNICRFLTASQDKILFKDVNRKLSDVWKELSLLLQVEQRMPVSPISQGASWAQEDQQDADEDRRAFQMLRRDNEKIEASLRRLEINMKEIKETLRQYLPPKCMQEIPQEQIKEIKKEQLSGSPWILLRENEVSTLYKGEYHRAPVAIKVFKKLQAGSIAIVRQTFNKEIKTMKKFESPNILRIFGICIDETVTPPQFSIVMEYCELGTLRELLDREKDLTLGKRMVLVLGAARGLYRLHHSEAPELHGNIRSSNFLVTQGYQVKLAGFELRKTQTSMSLGTTREKTDRVKSTAYLSPQELEDVFYQYDVKSEIYSFGIVLWEIATGDIPFQGCNSEKIRKLVAVKRQQEPLGEDCPSELREIIDECRAHDPSVRPSVDEILKKLSTFSK
notes: human MLKL, residues 2–471, with K331N in the pseudocatalytic loop; also called K331N hMLKL; K331N hMLKL(2–471); source: Sf21 insect cells (baculovirus), purified (glutathione agarose, TEV cleavage, Superdex S200); not shown: GST, N-terminal, cleaved
[2]
  stoichiometry N: 4

B3: Streptavidin-binding peptide (SBP)-tagged human RIPK3 kinase domain (residues 2–356) (domain or fragment, UniProt Q9Y572 2-356, looked up)
chain: SCVKLWPSGAPAPLVSIEELENQELVGKGGFGTVFRAQHRKWGYDVAVKIVNSKAISREVKAMASLDNEFVLRLEGVIEKVNWDQDPKPALVTKFMENGSLSGLLQSQCPRPWPLLCRLLKEVVLGMFYLHDQNPVLLHRDLKPSNVLLDPELHVKLADFGLSTFQGGSQSGTGSGEPGGTLGYLAPELFVNVNRKASTASDVYSFGILMWAVLAGREVELPTEPSLVYEAVCNRQNRPSLAELPQAGPETPGLEGLKELMQLCWSSEPKDRPSFQECLPKTDEVFQMVENNMNAAVSTVKDFLSQLRSSNRRFSIPESGQGGTEMDGFRRTIENQHSRNDVMVSEWLNKLNLEE
notes: human RIPK3 kinase domain, residues 2–356; The His6 fusion is TEV protease-cleavable; also called SBP-hRIPK3; hRIPK3 kinase domain; source: Sf21 insect cells (bacmid from pFastBac Htb); not shown: SBP, N-terminal, kept
[3]
  binding result: binds
